From US20190241662A1 (ADAGENE, published 2019) come the findings set out here.

As usually defined, the Kd is the free concentration of one partner at which half of the binding sites on the other are occupied at equilibrium, for simple one-to-one binding. Broadly, the koff is the rate constant with which the complex falls apart. The kon is the rate constant with which the complex forms. For orientation: EC50 means the concentration needed to bring the measured effect to its halfway point.

The target in assay [1] is T1, full-length human CTLA4 expressed on cells (human, UniProt P16410 36-223).
T1 construct: whole, on cells; also called HEK293F/hCTLA-4 cells; HEK293F/hCTLA4 cells
T1 sequence (looked up): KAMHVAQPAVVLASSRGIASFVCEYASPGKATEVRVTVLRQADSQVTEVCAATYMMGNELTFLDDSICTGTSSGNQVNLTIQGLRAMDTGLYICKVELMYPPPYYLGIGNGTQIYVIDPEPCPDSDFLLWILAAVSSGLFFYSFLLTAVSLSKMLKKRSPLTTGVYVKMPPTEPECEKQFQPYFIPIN
Kind of assay: flow cytometry blocking: HEK293F cells with human CTLA4, 100 nM antibody, then 100 nM CD86-Fc-Bio (blocked ligand); PBSA panel: Mean 10678, 12.2%. As to the method: (§1) Antibodies were also tested for their ability to block binding of CTLA4 to its cognate ligands CD80 and CD86 by flow cytometry. The plasmid encoding full-length human CTLA4 was transiently expressed in HEK293F cells. Cells were washed with staining buffer (PBSA buffer including 1.76 mM KH₂PO₄, 10.14 mM Na₂HPO₄.12H₂O, 2.68 mM KCl, 136.89 mM NaCl and 1% BSA), and resuspended in staining buffer containing 100 nM test antibodies. […] Cells were washed once, and analyzed by CytoFlex flow cytometry.

Assay [2] has as its target T2, full-length mouse CTLA4 expressed on HEK293F cells (mouse, UniProt P09793 36-223).
T2 construct: whole, on cells
Kind of assay: flow cytometry, transfected HEK293F cells [Cont.]. How it is done: (§2) The affinities of the antibodies were also assessed against human and mouse CTLA4 transiently expressed on the surface of HEK293F cells (FIG. 2). Briefly, HEK293F cells were transfected with a plasmid expressing full-length human, monkey or mouse CTLA4 from a bicistronic IRES vector also encoding EGFP, and EGFP expression was used to identify the transfected cells. After 48 hours, the mammalian cell suspension (2×10⁵/well) was transferred to an Eppendorf tube, centrifuged, the supernatant was discarded, the cells were resuspended with 1 mL PBSA (to a density is 4×10⁶ cells/mL), and added to a 96 well plate. […] The cells were then washed once prior to analysis by flow cytometry (Beckman® CytoFlex).
(Flow cytometry measures light scatter and fluorescence of single cells or particles in a stream.)

The target in assay [3] is T1, full-length human CTLA4 expressed on …. Nature of the assay: flow cytometry blocking: HEK293F cells with human CTLA4, 100 nM antibody, then 100 nM CD80-Fc-Bio (blocked ligand); PBSA panel: Mean 157692, 26.3%. As to the method: as §1
For assay [4] the target is unchanged. Kind of assay: flow cytometry, transfected HEK293F cells, antibody concentration not printed [Cont.]. How it is done:
as §2

Assay [5] addresses T2, full-length mouse CTLA4 expressed on …. The assay is described as above. How it is done:
as §2

In assay [6] the target is mouse CTLA4 fused with human FC fragment (mouse, UniProt P09793 36-162, limits assumed). Nature of the assay: ELISA, captured Fab, CTLA4-Fc titrated. In general terms: In an ELISA, binding on a coated surface is turned into a signal by an enzyme label.
In assay [7] the target is T3, recombinant human CTLA4-Fc (human, UniProt P16410 36-162).
T3 construct: also called human CTLA4 fused with human FC fragment; CTLA4-Fc (Sino Biological, 11159-H03H)
T3 sequence (looked up): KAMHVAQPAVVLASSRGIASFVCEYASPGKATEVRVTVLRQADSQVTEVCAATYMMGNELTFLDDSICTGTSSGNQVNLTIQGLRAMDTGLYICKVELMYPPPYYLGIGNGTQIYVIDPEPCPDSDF
Kind of assay: BLI Octet, CTLA4-Fc on AHC sensor, Fab 10 ug/mL. How it is done: Proprietary phagemid libraries (see PCT application number PCT/CN2017/098333, incorporated herein by reference in its entirety; see also PCT application number PCT/CN2017/098299, incorporated herein by reference in its entirety) were employed to pan against human CTLA4 antigens. A total of 3-5 rounds of panning were conducted. After the final round of panning, single-colony supernatant ELISA was performed to identify the primary hits that specifically recognized human CTLA4 (see e.g., UniProt Accession Number P16410). The primary hits were defined as those whose ELISA signals were at least twice that of background. The hits were then sequenced, and the unique clones were expressed in E. coli and purified. Their affinities against human CTLA4 were measured by ForteBio Octet RED96 Systems. […] The acquired ForteBio data were processed with Data Acquisition software 7.1, and kinetic data were fitted to a 1:1 Langmuir binding model.
In general terms: BLI is a label-free optical method that tracks binding on a fibre tip over time.

Assay [8] has as its target T3, recombinant human CTLA4-Fc. Kind of assay: ELISA, coated human CTLA4-Fc; EC50 divided by the EC50 of TY21580. As to the method: (§3) Plates were blocked with PBS supplemented with 3% non-fat milk at 37° C. for 1 hour. After washing, 100 μL of 3-fold serial dilutions of antibodies were added to each well. After incubation at 37° C. for 1 hour, plates were washed four times, and 100 μL HRP conjugated anti-human IgG (Fab specific) (1:6000 dilution) was added to each well. Plates were incubated at 37° C. for 1 hour, washed four times, and then 50 μL TMB substrate solution was added to each well, and the plate was incubated at room temperature. […] The EC₅₀ was evaluated by fitting the ELISA data using the asymmetrical sigmoidal (five-parameter logistic equation) model of GraphPad Prism 6 software.
(§4) The purified activatable antibodies were treated with the proteases which recognize the cleavage sequences, and were then tested to determine whether removal of the masking peptide restored their activity.

For assay [9], the target named is T3, recombinant human CTLA4-Fc. Kind of assay: ELISA, coated human CTLA4-Fc (as in Example 8). How it is done:
as §3

The target in assay [10] is T3, recombinant human CTLA4-Fc. Kind of assay: ELISA; EC50 divided by the EC50 of TY21580. As to the method:
as §3

Assay [11] addresses T3, recombinant human CTLA4-Fc. Nature of the assay: ELISA; EC50 divided by the EC50 of TY21580. As to the method:
as §3
This is another data set of the same source.

Assay [12] concerns the target T3, recombinant human CTLA4-Fc. Nature of the assay: ELISA, coated human CTLA4-Fc (as in Example 8). How it is done: as §3
The source holds these as a separate data set.

For assay [13], the target named is T3, recombinant human CTLA4-Fc. Kind of assay: ELISA; EC50 divided by the EC50 of TY21580. As to the method: as §3
The source holds these as a separate data set.

For assay [14], the target named is T3, recombinant human CTLA4-Fc. Kind of assay: ELISA, coated human CTLA4-Fc (as in Example 8). As to the method:
as §3
The source holds these as a separate data set.

The target in assay [15] is T3, recombinant human CTLA4-Fc. Kind of assay: ELISA, coated human CTLA4-Fc. As to the method:
as §3, §4

B1: TY21589 (antibody, V domains shown)
VH: EVQLVESGGGLVQPGGSLRLSCAASGFTFSDYWIHWVRQAPGKGLEWIGWISPSGGGTKYAQKFQGRVTISRDNSKNTLYLQLNSLRAEDTAVYYCARGAYEFDYWGQGTLVTVSS
VL: DIQLTQSPSSLSASVGDRVTITCRASQSVSSRFLAWYQQKPGKAPKLLIYDASNRATGIPSRFSGSGSGTDFTLTISSLQPEDFATYYCQQSYPTPLTFGQGTKVEIK
notes: human IgG1 (hIgG1) from Fab hit B15740
In the case of B1, in assay [1], the “% of cells in upper right quadrant (CD86-positive) in the presence of the antibody” value was 0.55% and the “Mean of the CD86 binding signal in the presence of the antibody” value came out at 6660. In addition, the binding result in assay [2] is listed as “no binding (tested: not printed on the sheet)”. Further, in assay [3], the “% of cells in upper right quadrant (CD80-positive) in the presence of the antibody” value was 27.5% and the “Mean of the CD80 binding signal in the presence of the antibody” value was found to be 110000. The “% of cells in upper right quadrant (Q2)” value in [4] was 29.7%. For the same molecule, the “% of cells in upper right quadrant (Q2)” value in [5] was found to be 1.36%.

B2: B15740 (Fab, V domains shown)
VH: B1 VH
VL: DIQLTQSPSSLSASVGDRVTITCRASQSVSSRFLAWYQQKPGKAPKLLIYDASNRATGIPSRFSGSGSGTDFTLTISSLQPEDFATYYCQQSYPTPLTFGQGTKVEIKR
notes: Fab from E. coli; also called Fab hit of TY21589
For B2, the binding result in assay [6] was “no binding”. Also, in [7], the Kd was 14.5 nM, the koff amounted to 0.00258 s⁻¹ and the on-rate (kon) was 178000 M⁻¹ s⁻¹.

B3: TY22404 (antibody, IgG1, V domains shown)
VH: EVQLVESGGGLVQPGGSLRLSCAASGYSISSGYHWSWIRQAPGKGLEWLARIDWDDDKYYSTSLKSRLTISRDNSKNTLYLQLNSLRAEDTAVYYCARSYVYFDYWGQGTLVTVSS
VL: EVGSYPNPSSDCVPYYYACAYSGRSAGGGGSPLGLAGSGGSDIQLTQSPSSLSASVGDRVTITCRASQSVRGRFLAWYQQKPGKAPKLLIYDASNRATGIPSRFSGSGSGTDFTLTISSLQPEDFATYYCQQSSSWPPTFGQGTKVEIKR
notes: IgG1; peptide fused to the N-terminus of the light chain of TY21580
Take B3: the masking efficiency turned out to be 216 in assay [8], 572 in assay [10], 308 in assay [11] and 469 in assay [13]. Besides, the half-maximal effective concentration (EC50) in assay [9] amounted to 68.4 nM; in [12], 122 nM; in assay [14], 117 nM; in assay [15], 96.8 nM. For the same molecule, in assay [15], the LogEC50 is -7.01.
